Results from US7119066 (Regeneron, dated 2006).

Key:
[1] = target: T1, rat CNTF receptor on rat superior cervical ganglia (SCG) neurons (rat, UniProt Q08406 23-342); test: competition with 125I-rat CNTF on rat SCG neurons
T1 construct: whole, on cells; also called rat SCG neurons; rat receptor
T1 sequence (looked up): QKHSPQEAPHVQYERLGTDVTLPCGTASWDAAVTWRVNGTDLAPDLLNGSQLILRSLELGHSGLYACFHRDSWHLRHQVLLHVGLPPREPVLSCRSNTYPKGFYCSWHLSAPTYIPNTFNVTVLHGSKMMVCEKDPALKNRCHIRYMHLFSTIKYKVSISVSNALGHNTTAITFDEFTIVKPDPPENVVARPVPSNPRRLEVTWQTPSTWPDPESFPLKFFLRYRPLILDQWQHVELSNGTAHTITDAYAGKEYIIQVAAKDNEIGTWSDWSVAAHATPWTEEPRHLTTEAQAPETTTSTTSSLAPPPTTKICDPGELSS
Protocol: Growth medium consisted of Ham's nutrient mixture F12 with 10% heat-inactivated fetal bovine serum (Hyclone), nerve growth factor (NGF) (100 ng/ml), penicillin (50 U/ml) and streptomycin (50 µg/ml). Cultures were maintained at 37° C. in a humidified 95% air/5% CO_2 atmosphere. Ganglion non-neuronal cells were eliminated by treatment with araC (10 µM) on days 1 and 3 of culture. Cultures were fed 3 times/week and were routinely used for binding assays within 2 weeks.
(§1) Binding was performed directly on cell monolayers. Cells in culture wells were washed once with assay buffer consisting of phosphate buffered saline (PBS; pH 7.4), 0.1 mM bacitracin, 1 mM PMSF, 1 µg/ml leupeptin, and 1 mg/ml BSA. […] Non-specific binding was determined in the presence of 1,000-fold excess of unlabelled CNTF. Specific binding towards MG87/CNTFR was 80–90%. Data were analyzed using the […] program (ISI, Philadelphia, Pa.).

[2] = target: T2, human CNTF receptor alpha-component on MG87/CNTFR fibroblasts (human, UniProt P26992 23-342); test: competition with 125I-rat CNTF on MG87/CNTFR cells
T2 construct: whole, on cells; also called huCNTFR; CNTFRα
T2 sequence (looked up): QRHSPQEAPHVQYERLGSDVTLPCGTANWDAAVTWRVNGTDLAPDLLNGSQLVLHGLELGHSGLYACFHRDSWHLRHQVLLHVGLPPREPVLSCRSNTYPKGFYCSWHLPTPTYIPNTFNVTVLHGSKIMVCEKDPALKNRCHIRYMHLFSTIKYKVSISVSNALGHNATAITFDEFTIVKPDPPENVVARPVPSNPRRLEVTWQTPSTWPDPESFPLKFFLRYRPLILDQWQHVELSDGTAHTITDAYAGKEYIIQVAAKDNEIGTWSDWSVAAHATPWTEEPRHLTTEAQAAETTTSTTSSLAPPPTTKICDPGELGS
Protocol: as §1
Similar results were obtained from competition experiments with mouse fibroblasts transfected with a plasmid directing the expression of the human CNTF receptor (FIG. 4b).

fold less potent than unlabelled rat CNTF [1]: 90 times
fold less potent than rat CNTF [2]: 12 times
B1: recombinant human CNTF (ciliary neurotrophic factor) (ligand)
chain: MAFTEHSPLTPHRRDLCSRSIWLARKIRSDLTALTESYVKHQGLNKNINLDSADGMPVASTDQWSELTEAERLQENLQAYRTFHVLLARLLEDQQVHFTPTEGDFHQAIHTLLLQVAAFAYQIEELMILLEYKIPRNEADGMPINVGDGGLFEKKLWGLKVLQELSQWTVRSIHDLRFISSHQTGIPARGSHYIANNKKM
notes: also called rHCNTF; hCNTF
